# Laboratory results as given in the nanobody polyreactivity screen of Harvey et al. (2022).
# Test: yeast display, Sf9 membrane polyspecificity reagent, FACS + sequencing; frameworks hold sequencing errors
# Outline: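 Polyreactivity labels are assigned by the sorting gate from which each nanobody was recovered. The gates were low and high (top ~1%), set on anti-HA fluorescence for expression and streptavidin fluorescence for reagent binding. Before sorting, galactose-induced (36–48 hours) yeast display cells were stained for 1 hour at 4 °C with 10% biotinylated, detergent-solubilized Sf9 membrane reagent.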
row,Sequence,polyreactivity (PSR sort gate)
1,QVQLVESGGGLVQAGGSLRLSCAASGRTFRRYAMGWYRQAPGKERELVAAITYRGGSTYYADSVKGRFTISRDNAKNTVYLQMNSLKPEDTAVYYCNKQGNGQLGTTQGRYDYWGQGTQVTVSS,high polyreactivity
2,QVQLVESGGGLVQAGGSLRLSCAASGSIFYFYAMRWYRQAPGKERELVAAITDGGASTRYADSVKGRFTISRDYAKNTVYLHMNSLKPEDTAVYYCNARKYWKYGSYQYYWGQGTQVTVSW,high polyreactivity
3,QVQLVESGGGLVQAGGSLRLSCAASGRIFLRYAMGWYRQAPGKERELVAVITWSGGSTYYADSVKGRFTISRDNAKNTVYLQMNSLKPEDTAVYYCAADWYPTGFYYWGQGTQVTVSS,low polyreactivity
4,QDQLGESGGGLVQAGGSLRLSCAAAGSIFGTNAMGWYRQAPGKEREFVATISSRTGSTYYADSVKGRFTISRDNAKNRVYLQMNSLKPEDPAVYYCAAVRWYGKYDDWGQGTQVTVSS,low polyreactivity
5,QVQLVESGGGLVQAGGSLRLSCAASGRISSSYAMGWYRQAPGKEREFVAGITSIGGRTYYADSVKGRFTISRDNAKNTVYLQMNSLKPEDTAVYYCATTSSWRYGYWGQGTQVTVSS,high polyreactivity
6,QVQLVESGGGLVQAGGSLRLSCAASGFTFSTYAMGWYRPAPGKERELGAAISRSGGSTYYADSVKGRFTISRDNAKNTVYLQMNSLKPEDTAVYYCAADGLRRESSYYYWAQGTQVTVSS,high polyreactivity
7,QVQLVESGGGLVQAGGSLRLSCPASGSIFDVYTMGWYRQAPGKEMELVAAINTGGGSTYYADSVKGRFTISRDTAKNTVYLQMYSMKPEDTAVYSCAKEVSPYWTFDYWGQGTQVTVSS,low polyreactivity
8,QVQLVESGGGLVQAGGSLRLSCAASGITFSRNVMGWYRQAPGKERELVAAISRSGGRTYYADSVKGRFTISRDTAKNTVYLQINSLKAEDTAVYYCNRDIGGTSVLDDYWGQGTQVTVSS,low polyreactivity
9,QVQLLESGGGLVQAGGSLRLSCAASGSTFPRYVMGWYRQAPGKERELVAAISSSSGRTFYADSVKGRFTISRDNAKNTVYLQMNSLKPEDTSVYYCAARTSFNVHYWGQGTQVTVSS,high polyreactivity
10,QVQLVESGGGLVHAGGSLRLSCAASGRIFVRYAMGWYRQAPGKERELVAAINWRGSSTYYADSVKGRFTISRDNAKNTVYLQMNSLKPEDTAVYYCNTAQRYRVYRYDYWGQGTQVTVSS,high polyreactivity
11,QVQLVQSGVGLVQAGGSLRLSCAASGSIFSYYVMGWYRQAPGKERELVAAISWSGGSTYYADSVKGRFTISRDNAKNTVYLQMNSLKPEDTAVYYCAAGTYPYYWVQGTQVTVSS,low polyreactivity
12,QVQLGESGGGLVQAGGSLRLSSAASGRTFGSNAMGWYRQAPGKERELVAASSSTVSTNYADSEKGRFTISRDNAKNTVYLQMNSLKPEDTAVYYCNVTRHYSYVSEYDYWGQGTQVTVSS,low polyreactivity
13,QVQLVESGGGLVQAGGSLRLSSAASGFTLGYNAMGWYRQAPGKERELVAGITWSGGSTSYADSVKGRFTISRDNAKNTVYLQMNSLKPEDTAVYYCAKLRRYSGWLPWPYAYDYWGQGTQVTVSS,high polyreactivity
14,QVQLVESGGGLVQAGGSLRLSCAASGITFVGNAMGWYRQAPGKERELVAVISRGDSTNYADSVKGRFTISRDNAKNTVYLQMNSLKPEDTAVYYCAADGSRAGQEGNDYCGQGTQVTVSS,low polyreactivity
15,QVQLVESGGGLVQAGGSLRLSCAASGSIFWGNDMGWYRQAPGKERELVAGIRNSGTSTYYADSVKGRFTISRDHAKNTVYLQMNSLKPEDTAVYYCAAADGRQYSRYYWRGHDYWGQGTQVTVSS,low polyreactivity
16,QVHLVESGGVIVQAGGILRLSCAASGNIFTYYVMGWYRQAPGKERELVAAISRRGGSTYYADSVKGRFTISRDIAKNTVYLQMNSLKPEDTAVYYCAKKYPRDMDYWGQVTQVTVSS,high polyreactivity
17,QVQLVESGGGLVQAGGSLRLSSAASGNIIKYYAMGCYRQEPGKERELVAAINWSGGSTYYADSVKGRFTISRDNAKNTVYLQMNSLKPEDTAVYYCNVFSSGYYLFDYWGQGTQVTVSS,high polyreactivity
18,QVQLVESGGGLVQAGGSLRLSCAAYGRIFIGYTMGWYRQAPGNERELVAVISYRGGRTYYADSVKGRFTISRDNAKNTVYLQMNSLKPEDTAVYYCAAYRPGVISGFDYWGQGTQVTVSS,high polyreactivity
19,QVQHVESAGGLVQAGGSLRLSCAASGRIFYVNAMGWYRPAPGKERQLVAAIRSAVGTYYADSVKGRFTISRDNAKNTVYLQMNSLKPEDTAVYYCNADASFREYRFYLIEMDYWGQGTKVTVSS,high polyreactivity
20,QVQLVESGGGLVQAAGSLRLSCAASGSIAMGWYRQAPGKERELVATISSSGGSTYYADSVKGRFTISRDNAKNTVYLQMNSLKPEDTAVYYCAAGGYTLYHAWGYYWGQGTQVTVSS,low polyreactivity
21,QVQLVESGGGLVQAGGSLRLSCAASGRIFSYYTMGWYRQEPRKERELVATITSGVNTNYADSVKGRFTISRDNAKNTVYLQMNSLKPEDTAVFYCIARGTAERDYWGQGTQVTVSS,high polyreactivity
22,QVQLVESGGGLVQAGGSLRLSCAASGSIFTLYAMGWYRQAPGKERELVAAITWSGGSTYYADSVKGRFTISRDNAKNTVYLQMNSLKPEDTAVYFCAKDYLAGGPWEGHVEREYDYWGQGTQVTVSS,low polyreactivity

row,Sequence,polyreactivity (PSR sort gate)
1,QDQLVESGGGLVQAGGSLRLSCAASGSTFHWYVMGWYRQAPGKERELVAAISQSGGNTYYADSVKGRFTISRDNAKNTVYLQMNSLKPEVTAVFYCAADSVGVFNTTFFQFEYWGQGTQVTVSS,high polyreactivity
2,QVQLVESGGGLVQAGGSLRLSCAASGSTFSYYAMGWYRQAPVKERELVAAITSGGGRTYYADSVKGRFTISRDNAKNTVYLQMNSLKPEDTAVYYCNALSTLYNGYDYWGQGTQVTVSS,high polyreactivity
3,QVQLVESGGGLVQAGGSLRLSCAASGRIFYGYAMGWYIHAPGKERELVAAITYSGGITYYADSVKGRFTISRDNAKNTVYLQMNSLKPEDTAVYYCATSKSSVTGPDLDYWGQGTQVTVSS,high polyreactivity
4,QVQLEESGAGLVQAGGSLRLSCAASGYIFDKYTLGWYRQAPGKERELVAVISSRGGSTYYADSVKGRFTISRDNAKNTVYVQMNSRKPEDTAVYYCAARFYRPSVPYRYDYWGQGTQVTVSS,high polyreactivity
5,QVQLVESGGGLVQAGGSLRLSCAASGIIFEGNVMGWYRQAPGKERELVAAITSDTSTNYADSVKGRFTISRDNAKNTVYIQMNSLKPEDTAVYYCNAVIGTDYYYSGTAEFYYWGQGTQVTVSS,low polyreactivity
6,QLQLVESGGGLVQAGGSLRLSCAASGSTFWRYAMGWYRQAPGKERELVAAISWNGGSTYYADSVKGRFTISRDNAKNTVYLQMNSLKPEDTAVYYCAADYWFRYGTYEYWGQGTQGTVSS,high polyreactivity
7,QVQLVETGGGLVQAGGSLRLSCAASGRTFGYYTMGCYRQAPGKERELVAGISSAGSTNYADSVKGRFTISRDNAKNTVYLQMNSLKPADTAVYYCAARTYKVIQNNSWETYYYWGQGTQVTVSS,high polyreactivity
8,QVQLVESGGGLVQAGGSLRLSCAASGITIVLYAMGWYRQAPGKERELVAAINIDGNTNYADSVKGRFTISRDNAKNTVYLQMNSLKPEDTAVYYCATYYYYPSWYLLYGEYNYWGQGTQVTVSS,low polyreactivity
9,QVQLVESGGGLVQAGGSLRLSCAASGSIFVKYAMGWYRQAPGTERELVAAISGSGGSTYYADSVKGRFTISRDNAKNTVYLQMNSLKPEDTAVYYCAADDYFYSGRYGFEYWGQGTQVTVSS,low polyreactivity
10,QVQLVESGGGLVQAGGSLRLSCAASGSTLGSNARGWYRQAPGKERALVAAITWSGGTTYYADSVKGRFTISRDNAKNPVYLQMNSLKPEDTAVYYCATGQSVIYRYDYWGQGTQVTVSS,low polyreactivity
11,QVQLVESGGGLVQAGGSLRLSCGASGRIFAVNAMGWYRQARGKERELVAAITNVGSTNYADSVKGRFTISRDNAKNTVYLQMNSLKPEDTAVYYCNADLAQEDWKMDYWGLGTQVTVSS,low polyreactivity
12,QVQLVESGGGLVQAGGSLRLSCAASGRTFGANAMGWYRQAPGKERELVAAISSSDDSTYYADSVKGRFTISRDNAKKTDDLQMNSLKPEDTAVYYCAVAVGYTDSPYSYDYWGQGTQVTVSS,low polyreactivity
13,QVQLVESGGGLVQAGGSLRLRCAASGSILPWYAMGWYRHAPGKERELVAVITSDGGTNYADSVKGRFTISRDNSKNTVYLQMNSLKPEDTAVYYCAADRFSQSGFDSWGQGTQVTVSS,low polyreactivity
14,QVQLVESGGGLVQAGGSLRLSCAASGYTFNRNAMGWYRQAPGKERELVASITRRGGYTYYADSVKGRFTISRDNAKNTDYLQMISLKPEDTAVYYCAVESIRTGDYWGQGTQVTVSS,high polyreactivity
15,QVQLVESGGGLVQAGGSLRLSCAASGFTFPYYAMGWYRQAPGKERELVADITSGGGTNYADSVKGRFTISRDNAKNTVYLQMNSLKPEDTAVYYCAADAYHQGMDYWGQGTQVTVSS,low polyreactivity
16,QVQLVESGGGLIQAGGSLRLSCAASGIIFYPYTMGWYRPAPGKERELVAAIRQSGTSTYYADSVKGRFTISRDNAKKTVYFQMNSLKPEDTAVYYCNADDHIYWRKGYDYWGQGTQVTVSS,low polyreactivity
17,QVQLVESGGGLVQAGGSLRLSCAASGIIYTTNAMGWYRQAPGKERELVAAIRRSGSTYYADSVKGRFTISRDNAKNNVYLQMNSLKPEDTAVYYCNAKVHYGSRGDYWGQGTQLTVSS,low polyreactivity
18,QVQLVESGGGLVQAGGSLRLSCAASGSIFKYYALGWYRQAPGKERELVAAITSGVSTYADSVKGRFTISRDNAKNTVYLQMNSLKPEDTAVYYCAVRVTGPRGDYWGQGTQVTVSS,low polyreactivity
19,QVQLVESGGGLVQAGGSLRISCAASGSNFIRYAKGWYRQAPGKEMELVAAIRWSAGSTSYADSVKGRFTISRDNAKNTVYLQMNSLKPEDTAVYYCAAGPDYGWRRYDYWGQGTQVTVSS,low polyreactivity
20,QVQLHESGGGLVQAGGSLRLSCAASGTISVTYNMGWYRQAPGKEREFVAGNSTGATTNYADSVKGRFTISRDNAKNTVYLQMNSLKPEDTAVYYCAAHIYRQDHFYYWGQGTQVTVSS,low polyreactivity
21,QVQLVESGGGLVQAGGSLRLSCAASGSTFPYNAMGWYRQAPGKERELVAANTFSGGSTYYADSVKGRFTISRDNAKNTVYLQMNSLKPEDTAVYYCNARYPWWGQRYDYWGQGTQVTVSS,low polyreactivity
